Where no end group is shown, it is not given here.
B1: Phage-916 (peptide)
peptide: YCEGHLSQYMSKCL
notes: Peptide-87 library clone, tested as clonal phage supernatant with the peptide fused to the pIII filament of the bacteriophage
B2: Phage-930 (Peptide-87 library clone, SEQ ID NO: 1246) (peptide)
peptide: YCEGHIAEYMQKCL
modifications: cysteine pairing not given here; also: displayed fused to phage pIII protein, fusion end and linker not given here
notes: Tested as clonal phage supernatant; not shown: fused to the pIII filament protein of the bacteriophage
B3: Phage-921 (Peptide-87 library clone, SEQ ID NO: 1237) (peptide)
peptide: YCDGHSEVYMAKCL
modifications: cysteine pairing not given here; also: fused to phage pIII
notes: as for B2
B4: Phage-908 (peptide)
peptide: YCDGHSREYMSKCL
notes: as for B1
B5: Phage-925 (Peptide-87 library clone, SEQ ID NO: 1241) (peptide)
peptide: YCAGHAAEYMTKCL
modifications: cysteine pairing not given here; also: displayed fused to phage pIII protein, fusion end and linker not given here
notes: as for B2
B6: Phage-910 (peptide)
peptide: YCEGHAQEYMNKCL
notes: as for B1
B7: Phage-917 (peptide)
peptide: YCDGHSPEYIGKCL
notes: as for B1
B8: Phage-909 (peptide)
peptide: YCDGHAAEYMAKCV
notes: as for B1
B9: Phage-919 (Peptide-87 library clone, SEQ ID NO: 1235) (peptide)
peptide: YCDGHSREYMNKCL
modifications: cysteine pairing not given here; also: fused to phage pIII
notes: as for B2
B10: Phage-907 (peptide)
peptide: YCDGHAPQWMAKCL
notes: as for B1
B11: Phage-929 (Peptide-87 library clone, SEQ ID NO: 1245) (peptide)
peptide: YCDGHGPQYIQKCL
modifications: cysteine pairing not given here; also: displayed fused to phage pIII protein, fusion end and linker not given here
notes: as for B2
B12: Phage-920 (Peptide-87 library clone, SEQ ID NO: 1236) (peptide)
peptide: YCDGHDVEYMAKCL
modifications: cysteine pairing not given here; also: fused to phage pIII
notes: as for B2
B13: Phage-906 (peptide)
peptide: YCEGHAPQYMNKCL
notes: as for B1
B14: Phage-911 (peptide)
peptide: YCEGHAPQYMTKCL
notes: as for B1
B15: Phage-926 (Peptide-87 library clone, SEQ ID NO: 1242) (peptide)
peptide: YCDGHSVEYMEKCL
modifications: cysteine pairing not given here; also: displayed fused to phage pIII protein, fusion end and linker not given here
notes: as for B2
B16: Phage-918 (Peptide-87 library clone, SEQ ID NO: 1234) (peptide)
peptide: YCAGHLPEFMDKCL
modifications: cysteine pairing not given here; also: fused to phage pIII
notes: as for B2
B17: Phage-912 (peptide)
peptide: YCDGHSADYMAKCL
notes: as for B1
B18: Phage-924 (Peptide-87 library clone, SEQ ID NO: 1240) (peptide)
peptide: YCEGHSLMYMWKCL
modifications: cysteine pairing not given here; also: displayed fused to phage pIII protein, fusion end and linker not given here
notes: as for B2
B19: Phage-922 (Peptide-87 library clone, SEQ ID NO: 1238) (peptide)
peptide: YCDGHSLLYLSKCL
modifications: cysteine pairing not given here; also: fused to phage pIII
notes: as for B2
B20: Phage-927 (Peptide-87 library clone, SEQ ID NO: 1243) (peptide)
peptide: YCDGHAQEYRLKCL
modifications: cysteine pairing not given here; also: displayed fused to phage pIII protein, fusion end and linker not given here
notes: as for B2
B21: Phage-913 (peptide)
peptide: YCDGHIGLYLNKCL
notes: as for B1
B22: Phage-915 (peptide)
peptide: YCEGHLPQYMRPCL
notes: as for B1
B23: Phage-923 (Peptide-87 library clone, SEQ ID NO: 1239) (peptide)
peptide: YCEGHLAVYMEKCL
modifications: cysteine pairing not given here; also: displayed fused to phage pIII protein, fusion end and linker not given here
notes: as for B2
B24: Phage-905 (peptide)
peptide: YCDGHSWQYISKCL
notes: as for B1
B25: Phage-928 (Peptide-87 library clone, SEQ ID NO: 1244) (peptide)
peptide: YCDGHSAEYLLKCL
modifications: cysteine pairing not given here; also: displayed fused to phage pIII protein, fusion end and linker not given here
notes: as for B2
B26: Phage-914 (peptide)
peptide: YCEGHLPMYMIKCL
notes: as for B1

Key:
[1] = biological target: T1, Anti-CD28 Fab (SEQ ID NOs: 696, 697); experiment: phage ELISA; clonal phage supernatant on biotinylated anti-CD28 Fab captured on neutravidin, anti-M13 HRP detection
T1 construct: In the phage ELISA the Fab was biotinylated and captured on neutravidin coated plates
T1 sequence (VH, as listed by the source, chain 1 of 2): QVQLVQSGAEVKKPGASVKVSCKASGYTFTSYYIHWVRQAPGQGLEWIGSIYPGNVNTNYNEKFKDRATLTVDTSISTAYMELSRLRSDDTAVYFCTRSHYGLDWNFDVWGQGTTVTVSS
T1 sequence (VL, as listed by the source, chain 2 of 2): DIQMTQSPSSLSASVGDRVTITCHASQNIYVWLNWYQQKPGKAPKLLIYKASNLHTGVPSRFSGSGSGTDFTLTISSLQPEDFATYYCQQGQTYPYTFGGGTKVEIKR
Description: (§1) After panning, phage infected bacteria were plated out and colonies picked into 96 well blocks. Clonal phage was then amplified and separated from bacterial cells via centrifugation.
(§2) Clonal phage were harvested as crude supematants and screened via standard ELISAs. […] Prior to the addition of clonal phage, wells were incubated with blocking buffer and CD28 antigen or blocking buffer alone. Without washing or aspirating, clonal phage supematants were then added to the wells and incubated for a short time. Wells were then washed followed by detection of bound phage using a horse radish conjugated anti-M13 antibody. Clonal phage of interest were then sent for sequence analysis.

[2] = biological target: T1, Anti-CD28 Fab (SEQ ID NOs: 696, 697); experiment: phage ELISA on captured anti-CD28 Fab; competitor: CD28 antigen pre-incubated on the Fab
Description: as §1, §2

[3] = biological target: Anti-CD28 Fab (SEQ ID NOs: 696, 697); experiment: phage binding ELISA on captured anti-CD28 Fab; competitor: CD28 antigen preincubated in the wells
Target sequence in this assay (VH, as listed by the source, chain 1 of 2): as the sequence (VH, as listed by the source, chain 1 of 2) above
Target sequence in this assay (VL, as listed by the source, chain 2 of 2): as the sequence (VL, as listed by the source, chain 2 of 2) above

[4] = biological target: Anti-CD28 Fab (SEQ ID NOs: 696, 697); experiment: phage binding ELISA; biotinylated anti-CD28 Fab on neutravidin plate, clonal phage supernatant, anti-M13 HRP detection
Target sequence in this assay (VH, as listed by the source, chain 1 of 2): as the sequence (VH, as listed by the source, chain 1 of 2) above
Target sequence in this assay (VL, as listed by the source, chain 2 of 2): as the sequence (VL, as listed by the source, chain 2 of 2) above

[5] = biological target: T2, Anti-CD28 Fab (SEQ ID NOs: 696, 697); experiment: phage binding ELISA; Fab-coated wells pre-incubated with CD28 antigen as competitor, anti-M13 HRP detection;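 note: crude clonal phage supernatants from panned colonies added to wells after blocking buffer plus CD28 treatment, bound phage measured after a brief incubation and washing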
T2 construct: In the phage ELISA the Fab was biotinylated and captured on neutravidin coated plates
T2 sequence (VH, as listed by the source, chain 1 of 2): as the sequence (VH, as listed by the source, chain 1 of 2) above
T2 sequence (VL, as listed by the source, chain 2 of 2): as the sequence (VL, as listed by the source, chain 2 of 2) above
Description: as §1, §2

[6] = biological target: T2, Anti-CD28 Fab (SEQ ID NOs: 696, 697); experiment: phage binding ELISA; biotinylated anti-CD28 Fab on neutravidin plate, clonal phage supernatant, anti-M13 HRP detection

Row | Binder | Anti-CD28 Fab signal (phage binding ELISA) [1] | Anti-CD28 Fab signal in the presence of CD28 (phage binding ELISA) [2] | Anti-CD28 Fab signal in the presence of CD28 (phage binding ELISA) [3] | Anti-CD28 Fab signal (phage binding ELISA) [4] | Anti-CD28 Fab signal in the presence of CD28 (phage binding ELISA) [5] | Anti-CD28 Fab signal (phage binding ELISA) [6]
1 | YCAGHVAEYMAKCL [Phage-933] | 1.64 | 0.06 | – | – | – | –
2 | YCEGHTAEHMQKCL [Phage-932] | 1.64 | 0.05 | – | – | – | –
3 | B1 | – | – | 0.07 | 1.66 | – | –
4 | B2 | – | – | – | – | 0.13 | 1.64
5 | YCEGHLEQYMQKCL [Phage-942] | 1.63 | 0.06 | – | – | – | –
6 | YCAGHSLEYMQKCL [Phage-937] | 1.63 | 0.07 | – | – | – | –
7 | B3 | – | – | – | – | 0.06 | 1.66
8 | B4 | – | – | 0.1 | 1.67 | – | –
9 | B5 | – | – | – | – | 0.07 | 1.65
10 | B6 | – | – | 0.06 | 1.67 | – | –
11 | YCEGHSAQYMHKCL [Phage-931] | 1.64 | 0.06 | – | – | – | –
12 | YCDGHATEYMQKCL [Phage-934] | 1.64 | 0.1 | – | – | – | –
13 | B7 | – | – | 0.07 | 1.66 | – | –
14 | B8 | – | – | 0.07 | 1.67 | – | –
15 | B9 | – | – | – | – | 0.06 | 1.66
16 | B10 | – | – | 0.1 | 1.67 | – | –
17 | YCDGHDVEYMSKCL [Phage-936] | 1.64 | 0.05 | – | – | – | –
18 | YCEGHDLIYMWKCL [Phage-938] | 1.63 | 0.06 | – | – | – | –
19 | B11 | – | – | – | – | 0.07 | 1.64

Row | Binder | Anti-CD28 Fab signal (phage binding ELISA) [1] | Anti-CD28 Fab signal in the presence of CD28 (phage binding ELISA) [2] | Anti-CD28 Fab signal in the presence of CD28 (phage binding ELISA) [3] | Anti-CD28 Fab signal (phage binding ELISA) [4] | Anti-CD28 Fab signal in the presence of CD28 (phage binding ELISA) [5] | Anti-CD28 Fab signal (phage binding ELISA) [6]
20 | B12 | – | – | – | – | 0.07 | 1.66
21 | B13 | – | – | 0.08 | 1.67 | – | –
22 | B14 | – | – | 0.08 | 1.67 | – | –
23 | B15 | – | – | – | – | 0.09 | 1.65
24 | YCAGHAPEYMSKCL [Phage-939] | 1.63 | 0.05 | – | – | – | –
25 | YCEGHMWEYMAKCL [Phage-935] | 1.64 | 0.13 | – | – | – | –
26 | B16 | – | – | – | – | 0.06 | 1.66
27 | B17 | – | – | 0.07 | 1.67 | – | –
28 | YCDGHLDVYRAKCL [Phage-941] | 1.63 | 0.09 | – | – | – | –
29 | B18 | – | – | – | – | 0.08 | 1.65
30 | B19 | – | – | – | – | 0.07 | 1.65
31 | B20 | – | – | – | – | 0.07 | 1.65
32 | B21 | – | – | 0.06 | 1.66 | – | –
33 | B22 | – | – | 0.08 | 1.66 | – | –
34 | B23 | – | – | – | – | 0.12 | 1.65
35 | B24 | – | – | 0.05 | 1.67 | – | –
36 | YCEGHSSEYMWKCL [Phage-940] | 1.63 | 0.09 | – | – | – | –
37 | B25 | – | – | – | – | 0.07 | 1.65
38 | B26 | – | – | 0.09 | 1.66 | – | –

From patent US20260242478A1 (published 2026)
